Assay results taken from patent US20060252724A1 (Pfizer, published 2006).

Target: T1, rhBMP-2 (recombinant human bone morphogenetic protein-2) (human, UniProt P12643 283-396)
T1 construct: Control protein on the Western blot; Analysed on reducing SDS-PAGE
Assay: co-immunoprecipitation

T1 sequence (P12643 283-396 limits assumed): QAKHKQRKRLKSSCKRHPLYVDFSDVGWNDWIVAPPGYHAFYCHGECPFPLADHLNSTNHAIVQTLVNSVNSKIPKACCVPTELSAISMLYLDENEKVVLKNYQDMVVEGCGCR

B1: retrovirally produced BMP-3 (from pBABE-BMP3, full-length human BMP-3 cDNA, secreted by infected W-20-17 cells) (ligand)
chain: QWIEPRNCARRYLKVDFADIGWSEWIISPKSFDAYYCSGACQFPMPKSLKPSNHATIQSIVRAVGVVPGIPEPCCVPEKMSSLSILFFDENKNVVLKVYPNMTVESCACR
notes: Expressed from the full-length human cDNA; The secreted, processed form has a most abundant monomer of about 28 kD, with glycosylated or alternatively processed forms; also called vBMP3; BMP-3 CM
- binding result: no binding
